Results from article PMC4121237, “Engineering Neprilysin Activity and Specificity to Create a Novel Therapeutic for Alzheimer’s Disease” (PLoS ONE, 2014).
Where “and” joins values, the source holds several entries; their conditions need not be identical. Identical values can stand only once.

What was measured:
Assay in all cases: Steady-state kinetics of peptide cleavage, fluorescence polarisation
Format in all cases: biochemical
ANP = conditions: substrate ANP
Procedure, shortened: (§1)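 Reactions contain 1–500 nM NEP and 1–200 µM doubly labelled peptide (FAM, biotin) in pH 7.4 HEPES buffer at 37°C. Stop solution holds 2 mM 1,10-phenanthroline and 2 µM avidin, with 1 mM TCEP added for disulphide-containing peptides. Fluorescence polarisation then gives substrate cleaved, and initial rates versus substrate concentration yield kcat and KM.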

Neurotensin = tested on: Neurotensin
Procedure, shortened: as §1

Angiotensin = tested on: Angiotensin
Procedure, shortened: as §1

Nociceptin = conditions: substrate Nociceptin
Procedure, shortened: as §1

Aβ1–40 = conditions: for increase in kcat/KM (catalytic efficiency) on Aβ1–40 over wild-type NEP: relative to wild-type NEP
Procedure, shortened: as §1

Neurokinin A = conditions: substrate Neurokinin A
Procedure, shortened: as §1

[1] = ratio of wild-type NEP kcat/KM to that of the mutant
[2] = substrate Neurotensin, 37°C, pH 7.4
[3] = substrate Angiotensin, 37°C, pH 7.4
[4] = substrate Aβ 1–40, 37°C, pH 7.4

B1: NEPv: lead variant at round 2, human NEP ectodomain with the two mutations G399V and G714K (protein, UniProt P08473 52-750, looked up, variant G399V G714K)
extracellular domain: YDDGICKSSDCIKSAARLIQNMDATTEPCTDFFKYACGGWLKRNVIPETSSRYGNFDILRDELEVVLKDVLQEPKTEDIVAVQKAKALYRSCINESAIDSRGGEPLLKLLPDIYGWPVATENWEQKYGASWTAEKAIAQLNSKYGKKVLINLFVGTDDKNSVNHVIHIDQPRLGLPSRDYYECTGIYKEACTAYVDFMISVARLIRQEERLPIDENQLALEMNKVMELEKEIANATAKPEDRNDPMLLYNKMTLAQIQNNFSLEINGKPFSWLNFTNEIMSTVNISITNEEDVVVYAPEYLTKLKPILTKYSARDLQNLMSWRFIMDLVSSLSRTYKESRNAFRKALYVTTSETATWRRCANYVNGNMENAVGRLYVEAAFAGESKHVVEDLIAQIREVFIQTLDDLTWMDAETKKRAEEKALAIKERIGYPDDIVSNDNKLNNEYLELNYKEDEYFENIIQNLKFSQSKQLKKLREKVDKDEWISGAAVVNAFYSSGRNQIVFPAGILQPPFFSAQQSNSLNYGGIGMVIGHEITHGFDDNGRNFNKDGDLVDWWTQQSASNFKEQSQCMVYQYGNFSWDLAGGQHLNGINTLGENIADNGGLGQAYRAYQNYIKKNGEEKLLPGLDLNHKQLFFLNFAQVWCGTYRPEYAVNSIKTDVHSPKNFRIIGTLQNSAEFSEAFHCRKNSYMNPEKKCRVW
modifications: extracellular domain
Km (ANP; 37°C, pH 7.4): 33 ± 6 µM | kcat (ANP; 37°C, pH 7.4): 0.56 ± 0.05 s⁻¹ | Fold change in kcat/KM (ANP; [1]): 53 | Km (Neurotensin; [2]): 16 ± 3 µM | kcat (Neurotensin; [2]): 0.039 ± 0.002 s⁻¹ | Fold change in kcat/KM (Neurotensin; substrate Neurotensin, ratio of wild-type NEP kcat/KM to that of the mutant): 320 | reduction in kcat relative to wild-type NEP (Neurotensin; substrate neurotensin): 340 fold | Km (Angiotensin; [3]): 13 ± 2 µM | kcat (Angiotensin; [3]): 0.14 ± 0.007 s⁻¹ | Fold change in kcat/KM (Angiotensin; substrate Angiotensin, ratio of wild-type NEP kcat/KM to that of the mutant): 87 | reduction in kcat relative to wild-type NEP (Angiotensin; substrate angiotensin): 60 fold | Km (Nociceptin; 37°C, pH 7.4): 63 ± 7 µM | kcat (Nociceptin; 37°C, pH 7.4): 14 ± 0.9 s⁻¹ | Fold change in kcat/KM (Nociceptin; [1]): 2.6 | increase in kcat relative to wild-type NEP (Aβ1–40; substrate Aβ1–40): ~2 fold | Km (Aβ1–40; [4]): 14 ± 1 µM | kcat (Aβ1–40; [4]): 2.1 ± 0.1 s⁻¹ | Fold change in kcat/KM (Aβ1–40; substrate Aβ 1–40, ratio of wild-type NEP kcat/KM to that of the mutant): 0.055 | increase in kcat/KM (catalytic efficiency) on Aβ1–40 over wild-type NEP (Aβ1–40; substrate Aβ1–40): 18.5 fold and 20 fold | increase in kcat/KM (catalytic efficiency) on Aβ1–40 over wild-type NEP (Aβ1–40; substrate Aβ1–40, listed as Neprilysin variant G399V/G714K): approximately 20 fold | Km (Neurokinin A; 37°C, pH 7.4): 34 ± 7 µM | kcat (Neurokinin A; 37°C, pH 7.4): 1.1 ± 0.1 s⁻¹ | Fold change in kcat/KM (Neurokinin A; [1]): 52
